# Data reported in patent US20090098106.
# T1: HC8 (α7) subunit of the human 20S proteasome, P25788
# T1 chain: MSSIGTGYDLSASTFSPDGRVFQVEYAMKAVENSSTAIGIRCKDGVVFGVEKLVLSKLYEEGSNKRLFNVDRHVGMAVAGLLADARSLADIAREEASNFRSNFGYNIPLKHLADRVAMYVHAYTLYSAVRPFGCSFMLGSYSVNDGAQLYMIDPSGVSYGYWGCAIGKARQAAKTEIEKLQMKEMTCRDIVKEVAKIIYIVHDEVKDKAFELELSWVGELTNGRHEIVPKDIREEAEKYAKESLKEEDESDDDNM
# T2: HC8 SS 243,250AA mutant, P25788
# T2 chain: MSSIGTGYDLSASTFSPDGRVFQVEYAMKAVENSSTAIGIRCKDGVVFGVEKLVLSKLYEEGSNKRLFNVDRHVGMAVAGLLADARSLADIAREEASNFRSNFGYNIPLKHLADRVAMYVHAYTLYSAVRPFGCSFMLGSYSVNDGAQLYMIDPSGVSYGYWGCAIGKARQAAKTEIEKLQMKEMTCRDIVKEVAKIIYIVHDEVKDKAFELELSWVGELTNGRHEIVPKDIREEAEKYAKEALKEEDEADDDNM
# B1: NF-κB inducing kinase (NIK), human, full length (protein)
# chain: MAVMEMACPGAPGSAVGQQKELPKPKEKTPPLGKKQSSVYKLEAVEKSPVFCGKWEILNDVITKGTAKEGSEAGPAAISIIAQAECENSQEFSPTFSERIFIAGSKQYSQSESLDQIPNNVAHATEGKMARVCWKGKRRSKARKKRKKKSSKSLAHAGVALAKPLPRTPEQESCTIPVQEDESPLGAPYVRNTPQFTKPLKEPGLGQLCFKQLGEGLRPALPRSELHKLISPLQCLNHVWKLHHPQDGGPLPLPTHPFPYSRLPHPFPFHPLQPWKPHPLESFLGKLACVDSQKPLPDPHLSKLACVDSPKPLPGPHLEPSCLSRGAHEKFSVEEYLVHALQGSVSSSQAHSLTSLAKTWAARGSRSREPSPKTEDNEGVLLTEKLKPVDYEYREEVHWATHQLRLGRGSFGEVHRMEDKQTGFQCAVKKVRLEVFRAEELMACAGLTSPRIVPLYGAVREGPWVNIFMELLEGGSLGQLVKEQGCLPEDRALYYLGQALEGLEYLHSRRILHGDVKADNVLLSSDGSHAALCDFGHAVCLQPDGLGKSLLTGDYIPGTETHMAPEVVLGRSCDAKVDVWSSCCMMLHMLNGCHPWTQFFRGPLCLKIASEPPPVREIPPSCAPLTAQAIQEGLRKEPIHRVSAAELGGKVNRALQQVGGLKSPWRGEYKEPRHPPPNQANYHQTLHAQPRELSPRAPGPRPAEETTGRAPKLQPPLPPEPPEPNKSPPLTLSKEESGMWEPLPLSSLEPAPARNPSSPERKATVPEQELQQLEIELFLNSLSQPFSLEEQEQILSCLSIDSLSLSDDSEKNPSKASQSSRDTLSSGVHSWSSQAEARSSSWNMVLARGRPTDTPSYFNGVKVQIQSLNGEHLHIREFHRVKVGDIATGISSQIPAAAFSLVTKDGQPVRYDMEVPDSGIDLQCTLAPDGSFAWSWRVKHGQLENRP
# Columns and labels:
# [1] = biological target: T1, HC8 (α7) subunit of the human 20S …
# [2] = biological target: T2, HC8 SS 243,250AA mutant, P25788
protein,measurement,setting,value
B1,in vitro kinase assay (phosphorylation of HC8 in the immunoprecipitate),[1],HC8 was found to be a substrate for NIK phosphorylation in an in vitro kinase assay
same,in vitro kinase assay (phosphorylation of HC8 in the immunoprecipitate),[2],Replacement of two serine residues on HC8 (amino acids 243 and 250) by alanine completely abolished the NIK-induced phosphorylation of HC8
